From the RNAGym collection of RNA variant scans (doi:10.7554/elife.90254)

B1: LINE1-full (parent)
chain: UACGUAGGUGGUUUUCCCCUGAUAGUGCUAAGGGGGCCUGGAAGUUUGGACUGGGCAGAGCUCAACACAGCGUGGCAAAGUGGCUGUGGCUAGACUGCCUCUCUGGAUUCCUCGUCACUCAGCAGGGCAUCUCUGAGAGAAAUGCC

Variants of: B1
Test: self-cleavage, relative activity (ratio to wild type); higher = more cleavage; in vitro, sequencing; the parent is a self-cleaving ribozyme

Variant | self-cleavage
U39G A129U | 1.44
G40A A78U | 1.96
U39A G122A | 0.54
U39C U91A | 0.39
U39A U115C | 1.31
U39A U115A | 1.42
U39A U91C | 0.43
U39C U46G | 1.75
U39C A78U | 1.42
U39A C103U | 1.74
U39A U96G | 0.14
U39A U96A | 0.04
U39A U96C | 0.19
U39G | 1.46
U39C | 1.14
U39C U85G | 0.04
U39G U47C | 0.52
U39C G40C | 1.48
U39C G40A | 0.73
U39C A77U | 0.96
U39C U62C | 0.09
U39A U102A | 1.62
U39A U81A | 2.08
U39A C63U | 0.43

Variant | self-cleavage
U39C U45G | 1.17
U39C U45A | 0.87
U39C G126A | 1.18
G40A A140G | 1.12
G40A U96A | 0.03
U39C A117G | 1.37
U39C A117U | 1.49
U39C C99U | 0.5
U39C C90U | 0.07
U39C C90G | 0.03
U39C A92U | 0.58
U39C A92G | 0.09
U39C A79U | 1.2
U39C G114A | 1.04
G40A A117G | 1.03
U39C G139A | 0.58
U39C G139U | 0.42
U39G A64G | 0.09
G40A A124G | 0.52
U39C A59G | 0.04
U39C A59U | 0.61
U39C G122C | 0.96
U39C C123U | 0.9
U39G G135A | 1.86

Variant | self-cleavage
U39A U87C | 0.22
G40A A129C | 1.63
U39C A121U | 1.04
U39C A121G | 1.67
U39C A121C | 1.37
U39A G72A | 1.81
G40A A42G | 1.07
G40A G53A | 0.74
G40A U104A | 0.75
U39G U85A | 0
U39G U85C | 0.14
U39A U130A | 1.38
U39C U132A | 1.46
U39C U132C | 1.32
U39A G53U | 1.63
U39G U52C | 0
U39C A57U | 0.06
U39A G74A | 0.88
U39C C116U | 1.05
U39A U46C | 1.5
U39C U47A | 1.15
U39C A94G | 0.11
U39A U134C | 1.3
U39A U47A | 0.93

Variant | self-cleavage
G40A U91C | 0.21
G40A G74U | 1.45
G40A U112C | 0.89
U39C A142G | 1.18
U39C U104C | 1.77
U39G U132C | 2.44
U39G A65G | 0.15
U39A C120U | 1.56
G40A A79U | 1.13
U39A G106A | 1.35
U39A G60A | 0.05
U39G U143C | 1.81
U39C U109C | 1.49
U39C U109G | 0.74
G40A U81C | 1.04
U39A U52C | 1.72
U39A U112C | 1.38
U39G A67G | 1.2
U39A A140U | 1.23
U39C G86A | 0.09
U39A U104C | 1.57
U39C C71A | 0.09
U39C A65G | 0.09
U39C C131U | 1

Variant | self-cleavage
U39C A64U | 0.35
U39C A129G | 1.61
U39C A129U | 1.05
G40A A77G | 1.02
U39G G74A | 0.97
U39A G105U | 1.23
G40A A64U | 0.38
G40A A64C | 0.18
U39C C145U | 0.99
G40A C131U | 0.76
U39G A138G | 1.01
U39C U102A | 1.03
G40A G106A | 1.23
U39C U96C | 0.05
U39C U96A | 0.08
G40A U46A | 1.23
G40A U46C | 1.4
U39C G55A | 0.08
G40A A59G | 0.06
U39C G53U | 1.26
U39C A140U | 1.22
U39C A140G | 1.3
U39C A124U | 1.26
U39A U143C | 1.42

Variant | self-cleavage
U39C U143A | 1.01
U39C U143C | 1.33
U39C U87C | 0.17
U39C G75A | 0.83
G40A A94U | 0.26
U39A U108C | 1.24
U39C U73A | 1
U39C U73G | 1.08
U39C U73C | 2.09
G40A A57U | 0.05
U39C C113U | 1.26
U39A U100C | 1.67
U39C G72A | 1.07
G40A U87C | 0.06
U39G U45G | 1.05
U39C A141G | 1.11
U39A U132C | 1.38
U39C A107G | 1.36
U39A A142C | 1.59
G40A A43G | 1
U39G A92G | 0
U39G A92U | 1.06
G40A A136G | 0.85
U39C U108C | 1.92

Variant | self-cleavage
U39G C103A | 1.85
U39C A69G | 0.39
G40A G139A | 0.58
U39C A50G | 0.77
U39C U112C | 1.24
U39G U130C | 1.25
U39A G114A | 1.19
U39A G114U | 1.15
U39G C123U | 0
U39C C63U | 0.25
U39C C63A | 0.05
G40A U85A | 0.02
G40A U85C | 0.04
U39C G127U | 0.87
U39A G89A | 0.06
U39G U109C | 1.87
U39C A42U | 0.73
U39G U112A | 1.65
G40A A69G | 0.49
G40A C145U | 0.64
U39C G105U | 0.85
U39C G83U | 0.52
G40A G82A | 1.73
